# Data reported in patent US20160032257A1, “AGENT AND METHOD FOR MODIFYING THE 5' CAP OF RNA” (UNIVERSITÄT HAMBURG, priority 2012, published 2016).
# B1: GlaTgs2-V34A: GlaTgs2 variant, valine at position 34 replaced by alanine, SEQ ID NO: 4 (protein, listed as Giardia lamblia)
# chain: MSTWLLDSKCVERMKWLFSDLPEEKRVMIKMNEAAFFSVTPAVYADEVARMMRTVLALLGKPPYAVIDGTACVGGDTRLLAKHFDMTVAIERDPETYALLQDNLTTWGVDAKTISGDTAALIPQFWTLIGAVATFSLYLDPPWGGVDYRSQTDIQLTLGSLAVEDVVNRAFEAHLSMKLAVLKLPRNYNCGYLFRKLGKHEVFRITQGNFFVFFVARRGSRVKEHGRTAMLQLRKAREEAKARSEETKEDGETRGSGE
# B2: GlaTgs2-V34A, D76V: GlaTgs2 variant with exchanges V34A and D76V, SEQ ID NO: 9 (protein, listed as Giardia lamblia)
# chain: MSTWLLDSKCVERMKWLFSDLPEEKRVMIKMNEAAFFSVTPAVYADEVARMMRTVLALLGKPPYAVIDGTACVGGVTRLLAKHFDMTVAIERDPETYALLQDNLTTWGVDAKTISGDTAALIPQFWTLIGAVATFSLYLDPPWGGVDYRSQTDIQLTLGSLAVEDVVNRAFEAHLSMKLAVLKLPRNYNCGYLFRKLGKHEVFRITQGNFFVFFVARRGSRVKEHGRTAMLQLRKAREEAKARSEETKEDGETRGSGE
# B3: GlaTgs2-V34A, D76T: GlaTgs2 variant with exchanges V34A and D76T, SEQ ID NO: 8 (protein, listed as Giardia lamblia)
# chain: MSTWLLDSKCVERMKWLFSDLPEEKRVMIKMNEAAFFSVTPAVYADEVARMMRTVLALLGKPPYAVIDGTACVGGLTRLLAKHFDMTVAIERDPETYALLQDNLTTWGVDAKTISGDTAALIPQFWTLIGAVATFSLYLDPPWGGVDYRSQTDIQLTLGSLAVEDVVNRAFEAHLSMKLAVLKLPRNYNCGYLFRKLGKHEVFRITQGNFFVFFVARRGSRVKEHGRTAMLQLRKAREEAKARSEETKEDGETRGSGE
# B4: GlaTgs2-V34A, R92A: GlaTgs2 variant with exchanges V34A and R92A, SEQ ID NO: 10 (protein, listed as Giardia lamblia)
# chain: MSTWLLDSKCVERMKWLFSDLPEEKRVMIKMNEAAFFSVTPAVYADEVARMMRTVLALLGKPPYAVIDGTACVGGDTRLLAKHFDMTVAIEADPETYALLQDNLTTWGVDAKTISGDTAALIPQFWTLIGAVATFSLYLDPPWGGVDYRSQTDIQLTLGSLAVEDVVNRAFEAHLSMKLAVLKLPRNYNCGYLFRKLGKHEVFRITQGNFFVFFVARRGSRVKEHGRTAMLQLRKAREEAKARSEETKEDGETRGSGE
# B5: GlaTgs2-V34A, D76L: GlaTgs2 variant with exchanges V34A and D76L, SEQ ID NO: 7 (protein, listed as Giardia lamblia)
# chain: MSTWLLDSKCVERMKWLFSDLPEEKRVMIKMNEAAFFSVTPAVYADEVARMMRTVLALLGKPPYAVIDGTACVGGTTRLLAKHFDMTVAIERDPETYALLQDNLTTWGVDAKTISGDTAALIPQFWTLIGAVATFSLYLDPPWGGVDYRSQTDIQLTLGSLAVEDVVNRAFEAHLSMKLAVLKLPRNYNCGYLFRKLGKHEVFRITQGNFFVFFVARRGSRVKEHGRTAMLQLRKAREEAKARSEETKEDGETRGSGE
# B6: GlaTgs2-V34M: GlaTgs2 variant, valine at position 34 replaced by methionine, SEQ ID NO: 6 (protein, listed as Giardia lamblia)
# chain: MSTWLLDSKCVERMKWLFSDLPEEKRVMIKMNEMAFFSVTPAVYADEVARMMRTVLALLGKPPYAVIDGTACVGGDTRLLAKHFDMTVAIERDPETYALLQDNLTTWGVDAKTISGDTAALIPQFWTLIGAVATFSLYLDPPWGGVDYRSQTDIQLTLGSLAVEDVVNRAFEAHLSMKLAVLKLPRNYNCGYLFRKLGKHEVFRITQGNFFVFFVARRGSRVKEHGRTAMLQLRKAREEAKARSEETKEDGETRGSGE
# B7: GlaTgs2-WT: wild type trimethylguanosine synthase 2 from Giardia lamblia, 258 amino acids, SEQ ID NO: 1 (protein, listed as Giardia lamblia)
# chain: MSTWLLDSKCVERMKWLFSDLPEEKRVMIKMNEVAFFSVTPAVYADEVARMMRTVLALLGKPPYAVIDGTACVGGDTRLLAKHFDMTVAIERDPETYALLQDNLTTWGVDAKTISGDTAALIPQFWTLIGAVATFSLYLDPPWGGVDYRSQTDIQLTLGSLAVEDVVNRAFEAHLSMKLAVLKLPRNYNCGYLFRKLGKHEVFRITQGNFFVFFVARRGSRVKEHGRTAMLQLRKAREEAKARSEETKEDGETRGSGE
# B8: GlaTgs2-V34G: GlaTgs2 variant, valine at position 34 replaced by glycine, SEQ ID NO: 5 (protein, listed as Giardia lamblia)
# chain: MSTWLLDSKCVERMKWLFSDLPEEKRVMIKMNEGAFFSVTPAVYADEVARMMRTVLALLGKPPYAVIDGTACVGGDTRLLAKHFDMTVAIERDPETYALLQDNLTTWGVDAKTISGDTAALIPQFWTLIGAVATFSLYLDPPWGGVDYRSQTDIQLTLGSLAVEDVVNRAFEAHLSMKLAVLKLPRNYNCGYLFRKLGKHEVFRITQGNFFVFFVARRGSRVKEHGRTAMLQLRKAREEAKARSEETKEDGETRGSGE
# Tests used:
# [1] = target: T1, Giardia lamblia trimethylguanosine synthase 2 (GlaTgs2) variant GlaTgs2-V34A (V34A), SEQ ID NO: 4 (Giardia duodenalis, UniProt A8BW33, V34A); test: Enzymatic parameters of GlaTgs2-V34A with respect to AdoPropen and AdoMet (HPLC-coupled activity assay); assay type: biochemical
# T1 construct: HPLC-coupled cap N2 methyl/alkyl transfer assay with m7GpppA, helper enzymes MTAN and LuxS
# Protocol: (§1) The transfer of the propenyl (AdoPropen), pentenynyl (AdoEnYn) and benzyl (AdoBenzyl) residues carried by the synthetically produced AdoMet analogues onto the N2 atom of the guanosine of m^7GpppA (A=adenine) enzymatically catalysed by the WT-GlaTgs2 (SEQ ID NO: 1) and the proteins of the invention in accordance with SEQ ID NOs: 4-10 was investigated with the aid of a HPLC-coupled activity assay.
# (§2) Reaction buffer 2: 50 mM Tris; 10 mM MgCl2; 100 mM NH4OAc; pH 8.4
# (§3) MTAN stands for 5′-methylthioadenosine/S-adenosylhomocysteine nucleosidase. LuxS stands for S-ribosylhomocysteine lyase.
# (§4) The quantities were adjusted in proportion for larger samples of 10 or 20 μL. The quantity of AdoMet analogue used was matched such that the area of the peak in the chromatogram for a diastereoisomer of the AdoMet analogue corresponded to the area of the signal caused by m^7GpppA. The reaction was in general stopped directly after starting the reaction (t0) and after three hours at 37° C. (t180) and examined using analytical HPLC as well as MALDI-TOF.
# [2] = test system: C=CC[S+](CCC(N)C(=O)O)C[C@H]1O[C@@H](n2cnc3c(N)ncnc32)C(O)[C@H]1O; test: Enzymatic parameters of GlaTgs2-WT with respect to AdoPropen (HPLC-coupled activity assay); assay type: biochemical, Giardia lamblia; settings: other: with respect to AdoPropen, pH 8.4, 37.0 °C
# Protocol: as §1, §2, §3, §4
# [3] = Thermostability (T50, 15 min incubation, residual activity, Boltzmann fit); assay type: physicochemical; settings: for T50 (thermostability): 15 minutes incubation, Table 4; for T50 (15 min): temperature at which enzyme loses 50% of its activity after 15 minutes incubation, Table 3
# Protocol: The stability of a protein characterizes its ability to tolerate denaturing influences, such as an increase in the environmental temperature, within certain limits and to maintain the native conformation. The T50 value can be used as a measure of the thermostability.
# is the temperature at which an enzyme loses 50% of its activity after 15 minutes incubation. In order to determine the T50 value, the protein to be analysed is heated for 15 minutes to different temperatures in a thermocycler while a sample of the protein is incubated on ice. Next, activity tests are carried out with the previously heated proteins. […] After normalizing the values,
# can be obtained using a Boltzmann fit and “Origin” software.
# [4] = test system: m^7GpppA; test: HPLC-coupled activity assay: enzymatic transfer of the residue of an AdoMet analogue onto N2 of the guanosine of m^7GpppA; assay type: biochemical; settings: for m^7GpppA transformed: same quantity of enzyme; for TTN: Total Turnover Number
# Protocol: as §1, §2, §3, §4
# [5] = with respect to AdoPropen, Table 3
molecule,measurement,setting,value
"C=CC[S+](CCC(N)C(=O)O)C[C@H]1O[C@@H](n2cnc3c(N)ncnc32)C(O)C1O (stereo in doubt) [AdoPropen, 5′-[(S)-[(3S)-3-amino-3-carboxypropyl]prop-2-enylsulphonio]-5′-deoxyadenosine]",affinity for AdoPropen,[1]; compared with the wild type enzyme GlaTgs2-WT,higher affinity
same,kcat,"[1]; with respect to AdoPropen, GlaTgs2-V34A",0.003 ± 0.0013 s⁻¹
"Giardia lamblia trimethylguanosine synthase 2 (GlaTgs2-WT), wild type, SEQ ID NO: 1 (Giardia lamblia ATCC 50803)",Km,[2],151 ± 19 μM μM
same,kcat,[2],0.0015 ± 0.0013 s⁻¹
B1,T50 (thermostability),[3],40.4 ± 0.2
same,T50 (15 min),[3],40.4 ± 0.2 °C
same,transfer of benzyl,[4]; AdoBenzyl as AdoMet analogue,a transfer of benzyl was observed
same,m^7GpppA transformed,[4]; AdoEnYn,10%
same,m^7GpppA transformed,[4]; AdoPropen,95%
same,TTN,"[4]; AdoPropen, Table 2",10 ± 2
same,TTN,[4]; [5],10
B2,TTN,"[4]; AdoPropen, Table 2",1
B3,TTN,"[4]; AdoPropen, Table 2",2
B4,TTN,"[4]; AdoPropen, Table 2",8
B5,TTN,"[4]; AdoPropen, Table 2",1
B6,T50 (thermostability),[3],49.0
same,TTN,"[4]; AdoPropen, Table 2",6
B7,T50 (thermostability),[3],39.9 ± 0.2
same,T50 (15 min),[3],39.9 ± 0.2 °C
same,TTN,"[4]; AdoPropen, Table 2",3 ± 2
same,TTN,[4]; [5],3
B8,T50 (thermostability),[3],44.8
same,TTN,"[4]; AdoPropen, Table 2",5
